{"source": "patent US20250341526A1", "about": "“NOVEL DYES” (Quantum-Si Incorporated, priority 2024, published 2025)", "origin": "cited, not measured here", "molecules": {"B1": {"name": "PS574: ClpS amino acid recognition protein, SEQ ID NO: 88 (protein, listed as Gemmata obscuriglobus)", "chain": "MANATPTPDVVPEEETETRTRRQPPYAVVLHNDDTNTMDFVVTVLRKVFGYTVEKCVELMLEAHTQGKVAVWIGALEVAELKADQIKSFGPDPHVTKNGHPLGVTVEPAA"}, "B2": {"name": "PS564: ClpS amino acid recognition protein, SEQ ID NO: 78 (protein, listed as Planctomycetes bacterium)", "chain": "MFEEVVSVAVAEPKTKKQSRTKPKRQPPYHVILWDDTDHTFDYVIKMMGELFRMPREKGYQLAKEVDTSGRAICMTTTLELAELKRDQIHAFGRDDASAHCKGSMSATIEPAEG"}, "B3": {"name": "PS375: ClpS amino acid recognition protein, SEQ ID NO: 8 (protein)", "chain": "MEAEPETKVLASIPGVGTSEPFRVVLFNDEEHSFDEVIFQIIKAVRCSRAKAEALTMEVHNSGRSIVYTGPIEQCIRVSAVLEEIELRTEIQS"}, "B4": {"name": "PS566: ClpS amino acid recognition protein, SEQ ID NO: 80 (protein, listed as Planctomycetaceae bacterium)", "chain": "MSSPSSLDDVQVSTSRAKPANETRTRKQPPYAVIVENDDHHTFLYVIEALMKVCGHAPEKGFVLAQQIHTQGKAMVWSGTLELAELKRDQLRGFGPDNYAPRPVTFPLGVTIEPLP"}, "B5": {"name": "PS567: ClpS amino acid recognition protein, SEQ ID NO: 81 (protein, listed as Planctomycetaceae bacterium)", "chain": "MADYEDAGEDALEDDFDHGTVTVAPQKPEPKKQSENKRQANRQPRYNVLLWDSEDHTFEYVEKMLRELFGHIKKQCQIIAEQVDQEGRAVVLTTTLEHAELKRDQIHAYGKDQLEGSKGSMWSTIEAVD"}, "B6": {"name": "PS575: ClpS amino acid recognition protein, SEQ ID NO: 89 (protein, listed as Leptospira kmetyi)", "chain": "MASTQTPDLNEITEESTKSTGGPWRVVLWDDNEHTYEYVIEMLMEICTMTVEKAFLHAVQVDQEKRTVVFSGEFEHAEHVQERILTYGADPRMSNSKGSMSATLEK"}, "B7": {"name": "PS576: ClpS amino acid recognition protein, SEQ ID NO: 90 (protein)", "chain": "B6 chain with M44V, T48M, Q63K, V69D, F74L, T86N, K106R", "modifications": "Leptospira interrogans"}, "B8": {"name": "PS561: ClpS amino acid recognition protein, SEQ ID NO: 75 (protein, listed as Roseimaritima sp.)", "chain": "MAELQTAVVEPTTRPEQDEKQSQSRPKRQPRYNVILWDDPDHSYDYVIMMLKELFGHPRQRGHQMAEEVDTTGRVICLTTTMEHAELKRDQIHAYGSDEGITRCKGSMSASIEPVPE"}, "B9": {"name": "PS570: ClpS amino acid recognition protein, SEQ ID NO: 84 (protein, listed as Leptospira congkakensis)", "chain": "MTGAGASQPSILEETEVRPRLSDGPWKVVLWDDDFHTYEYVIEMLMDVCQMPWEKAFQHAVEVDTRKKTIVFSGELEHAEFVHERILNYGPDPRMGSSKGSMTATLEQ"}, "B10": {"name": "PS571: ClpS amino acid recognition protein, SEQ ID NO: 85 (protein, listed as Leptospira meyeri)", "chain": "B9 chain with G3S, A4S, V17R, R18K, S73F, S97T, Q108K"}, "B11": {"name": "PS563: ClpS amino acid recognition protein, SEQ ID NO: 77 (protein, listed as Acidobacteria bacterium)", "chain": "MSSRSATAYPEVEDDTSDQLQPLYHVILLNDEDHTYDYVIEMLQKIFGFPESKAFSHAVEVDTKGTTILLTCDLEQAERKRDLIHSYGPDWRLPRSLGSMAAVVEPAAG"}, "B12": {"name": "PS562: ClpS amino acid recognition protein, SEQ ID NO: 76 (protein, listed as Rubripirellula amarantea)", "chain": "MSDQQSMVAEPEVVVHTQDEKKLEKQNKRKKQPRYNVVLWDDTDHSYDYVVLMMKQLFHHPIETGFQIAKQVDKGGKAICLTTTMEHAELKRDQIHAFGKDDLIARCTGSMSATIEPVPE"}, "B13": {"name": "PS569: ClpS amino acid recognition protein, SEQ ID NO: 83 (protein, listed as Planctomycetes bacterium)", "chain": "MYSKNQIKIYCSEDDKGQTATPLLEKKPKFAPLYHVILWDDNTHTYEYVIKLLMSLFRMTFEKAYQHTLEVDKKGRTICITTHLEKAELKQEQISNFGPDILMQNSKGPMSATIEPAN"}, "B14": {"name": "PS573: ClpS amino acid recognition protein, SEQ ID NO: 87 (protein, listed as Leptospira fluminis)", "chain": "MSQTPVIEETTVKDPVKTGGPWKVVLWDDDEHTYDYVIEMLMEVCVMTMEQAFHHAVEVDTQKKTVVYSGEFEHAEHIQELILEYGPDPRMAVSKGSMSATLEKS"}, "B15": {"name": "PS578: ClpS amino acid recognition protein, SEQ ID NO: 92 (protein, listed as Planctomycetes bacterium)", "chain": "MSGTVVESKPRNSTQLAPRWKVIVHDDPVTTFDFVLGVLRRVFAKPPGEARRITREAHDTGSALVDVLALEQAEFRRDQAHSLARAEGFPLTLTLEPAD"}, "B16": {"name": "PS565: ClpS amino acid recognition protein, SEQ ID NO: 79 (protein, listed as Aquisphaera sp.)", "chain": "MSEFDHEHSGDTSVADPIVTTKTAPKPQKHAENETETRRQPPYNVIILNDEEHTFDYVIELLCKVFRHSLATAQELTWRIHLTGRAVVLTTHKELAELKRDQVLAYGPDPRMSVSKGPLDCFIEPAPGG"}, "B17": {"name": "PS568: ClpS amino acid recognition protein, SEQ ID NO: 82 (protein, listed as Dehalococcoidia bacterium)", "chain": "MTTPSLPTRETEVEERTEVEPERLYHLVLLDDDQHSYQYVIEMLASIFGYGSEKAWTLARIVDTEGRAILETASHAQCERHQSQIHAYGADSRIPTSVGSMSAVIEEAGTPPQT"}, "B18": {"name": "PS374: ClpS amino acid recognition protein, SEQ ID NO: 7 (protein)", "chain": "MRWEDPLAAEPVTPGVAPVVEEETDAAVETPWRVILYDDDIHTFEEVILQLMKATGCTPEQGERHAWTVHTRGKDCVYQGDFFDCFRVQGVLREIQLVTEIEG"}, "B19": {"name": "PS577: ClpS amino acid recognition protein, SEQ ID NO: 91 (protein, listed as Tuwongella immobilis)", "chain": "MSASSSQPGTTTKPDLDIQPRLLPPFHVILENDEFHSMEFVIDTLRKVLGVSIERAYQLMMTAHESGQAIIWTGPKEVAELKYEQVIGFHEKRSDGRDLGPLGCRIEPAV"}, "B20": {"name": "PS572: ClpS amino acid recognition protein, SEQ ID NO: 86 (protein, listed as Blastopirellula marina)", "chain": "MSSEELSLQTRPKRQPPFGVILHNDDLNSFDYVIDSIRKVFHYELEKCFQLTLEAHETGRSLLWTGTLEGAELKQELLLSCGPDPIMLDKGGLPLKVTLEELPQ"}}, "note": "Substitutions are numbered along the chain they refer to.", "data": [{"test_system": "amino acid at a terminal position of a polypeptide", "conditions": "Table 1, ClpS proteins; amino acid at terminal position; inferred from literature and/or demonstrated by the inventors; cited from earlier work", "values": [{"molecule": "B1", "Binding Pref.": "I, L, V"}, {"molecule": "B2", "Binding Pref.": "I, L, V"}, {"molecule": "B3", "Binding Pref.": "F, L"}, {"molecule": "B4", "Binding Pref.": "I, L, V"}, {"molecule": "B5", "Binding Pref.": "I, L, V"}, {"molecule": "B6", "Binding Pref.": "I, L, V"}, {"molecule": "B7", "Binding Pref.": "I, L, V"}, {"molecule": "B8", "Binding Pref.": "I, L, V"}, {"molecule": "B9", "Binding Pref.": "I, L, V"}, {"molecule": "B10", "Binding Pref.": "I, L, V"}, {"molecule": "B11", "Binding Pref.": "I, L, V"}, {"molecule": "B12", "Binding Pref.": "I, L, V"}, {"molecule": "B13", "Binding Pref.": "I, L, V"}, {"molecule": "B14", "Binding Pref.": "I, L, V"}, {"molecule": "B15", "Binding Pref.": "I, L, V"}, {"molecule": "B16", "Binding Pref.": "I, L, V"}, {"molecule": "B17", "Binding Pref.": "I, L, V"}, {"molecule": "B18", "Binding Pref.": "F, Y, W, L"}, {"molecule": "B19", "Binding Pref.": "I, L, V"}, {"molecule": "B20", "Binding Pref.": "I, L, V"}]}]}
